Test [1] has as its target RSV A + RSV B bivalent composition (RSV subtype A; RSV subtype B). Description: AM14 Fab titration by SEC; Low-Fast cycle; 1 M 40°C. (In gel filtration, larger molecules generally elute earlier.)
For test [2] the target is unchanged. The test can be described thus: AM14 Fab titration by SEC; composition of Table 14; Drying Temp + Ramp Aggressive cycle.
Test [3] shares this target. The test can be described thus: AM14 Fab titration by SEC; composition of Table 17; Pre-lyo Prep 2, T0 (second value).
For test [4] the target is unchanged. The test can be described thus: AM14 Fab titration by SEC; Target cycle; 8 M 40°C.
For test [5] the target is unchanged. Description: AM14 Fab titration by SEC; Target cycle; T0 (second value).
Test [6] has the same target. Description: AM14 Fab titration by SEC; composition of Table 17; Pre-lyo Prep 1, T0.
Test [7] shares this target. Description: AM14 Fab titration by SEC; Low-Fast cycle; 3 M 40°C.
The target of test [8] is T1, RSV F protein of subtype A comprising a polypeptide of SEQ ID NO: 1 and a polypeptide of SEQ ID NO: 2 (RSV subtype A, UniProt P11209 137-513; P03420 26-109).
T1 construct: Stabilized prefusion F trimer made of three F2-F1 heterodimers; Produced recombinantly in CHO cells; also called RSV A; RSVA
T1 chain 1: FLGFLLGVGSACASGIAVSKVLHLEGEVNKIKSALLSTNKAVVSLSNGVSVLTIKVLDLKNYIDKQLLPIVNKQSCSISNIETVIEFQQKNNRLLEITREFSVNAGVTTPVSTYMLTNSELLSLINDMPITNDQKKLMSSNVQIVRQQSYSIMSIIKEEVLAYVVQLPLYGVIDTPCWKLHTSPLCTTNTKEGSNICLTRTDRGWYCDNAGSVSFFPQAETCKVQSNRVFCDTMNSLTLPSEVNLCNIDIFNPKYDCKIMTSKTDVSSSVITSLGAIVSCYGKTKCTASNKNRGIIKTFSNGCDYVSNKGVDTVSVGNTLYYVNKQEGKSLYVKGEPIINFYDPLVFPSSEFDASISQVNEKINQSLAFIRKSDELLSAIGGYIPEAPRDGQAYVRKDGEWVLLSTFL
T1 chain 2: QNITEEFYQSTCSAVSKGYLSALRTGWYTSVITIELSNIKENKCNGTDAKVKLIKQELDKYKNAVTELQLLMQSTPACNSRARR
Description: AM14 ELISA; F15 (pH 6, 0 mM NaCl, 9% sucrose); 1 wk 25°C.

Test [9] deals with T2, RSV F protein comprising a polypeptide of SEQ ID NO: 3 and a polypeptide of SEQ ID NO: 4 (RSV subtype B, UniProt O36634 137-513; O36634 26-109).
T2 construct: also called RSV B; RSVB
T2 chain 1: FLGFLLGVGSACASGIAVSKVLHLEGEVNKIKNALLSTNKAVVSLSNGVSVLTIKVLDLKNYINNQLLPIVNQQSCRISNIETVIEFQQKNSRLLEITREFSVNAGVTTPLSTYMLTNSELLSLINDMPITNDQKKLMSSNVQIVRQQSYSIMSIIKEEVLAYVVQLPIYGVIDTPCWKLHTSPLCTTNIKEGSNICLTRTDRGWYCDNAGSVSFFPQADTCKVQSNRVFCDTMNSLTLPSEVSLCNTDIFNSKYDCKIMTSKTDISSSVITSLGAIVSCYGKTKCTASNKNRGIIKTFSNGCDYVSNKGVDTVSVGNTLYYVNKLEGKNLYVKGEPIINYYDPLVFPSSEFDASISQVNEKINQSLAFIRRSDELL
T2 chain 2: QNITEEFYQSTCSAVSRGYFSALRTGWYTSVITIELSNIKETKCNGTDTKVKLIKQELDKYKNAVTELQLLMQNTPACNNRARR
The test can be described thus: AM14 prefusion assay relative to standard; RSV B 480 µg/mL, 2% sucrose + 4% mannitol; post-lyo T0.

The target in test [10] is T1, RSV F protein of subtype A comprising a …. Description: AM14 ELISA; F4 (pH 6, 50 mM NaCl, 4.5% sucrose); 1 wk 25°C. (In an ELISA, binding on a coated surface is turned into a signal by an enzyme label.)
Test [11] shares this target. Description: AM14 ELISA; F3 (pH 8, 0 mM NaCl, 9% sucrose); 2 wk 25°C.
The target is the same in test [12]. Description: AM14 ELISA; F4 (pH 6, 50 mM NaCl, 4.5% sucrose); 2 wk 25°C.
Test [13] has the same target. The test can be described thus: AM14 ELISA; F17 (pH 7, 50 mM NaCl, 4.5% trehalose); 1 wk 25°C.
For test [14] the target is unchanged. Description: AM14 ELISA; F18 (pH 7, 50 mM NaCl, 3% sucrose + 3% mannitol); 2 wk 25°C.
Test [15] shares this target. The test can be described thus: AM14 ELISA; F2 (pH 8, 0 mM NaCl, 0% sucrose); T0.

As for AM14 Fab, the Prefusion Content (%) was found to be 65% in test [1]; 67% in test [2]; 82% in test [3]; 67% in [4]; 77% in test [5]; 85% in test [6]. The Prefusion Content (%) in test [7] is 70%.

B1: AM14 (trimeric prefusion specific antibody of the AM14 ELISA) (antibody, V domains shown)
VH: EVQLVESGGGVVQPGRSLRLSCAASGFSFSHYAMHWVRQAPGKGLEWVAVISYDGENTYYADSVKGRFSISRDNSKNTVSLQMNSLRPEDTALYYCARDRIVDDYYYYGMDVWGQGATVTVSS
VL: DIQMTQSPSSLSASVGDRVTITCQASQDIKKYLNWYHQKPGKVPELLMHDASNLETGVPSRFSGRGSGTDFTLTISSLQPEDIGTYYCQQYDNLPPLTFGGGTKVEIKR
notes: Antibody as used in the AM14 ELISA, detected with an HRP-labeled secondary antibody
Turning to B1, the “AM14 prefusion content (%), relative to standard” value in test [8] amounted to 99%; in test [9], 82%; in [10], 59%; in test [11], 72%; in test [12], 86%; in test [13], 105%. The “AM14 prefusion content (%), relative to standard” value in test [14] amounted to 78%; in [15], 86%.

The record behind these values is patent publication US20260097113A1 (Pfizer, published 2026).
